The target of assay [1] is HPV16 L1 protein (human papillomavirus type 16) (UniProt P03101).
Assay [2] deals with L1-I peptide (HPV16 L1 residues 474-488) (human papillomavirus type 16). As to the kind of experiment: ITC; peptide (1 mM) in 50 mM phosphate buffer pH 7.4 in the sample cell; 3HP-β-LG or β-LG (50 μM) in the titration needle; 18°C, 2 μl injections. On the technique in general: Isothermal titration calorimetry measures the heat released or taken up as one component is titrated into another.

For assay [3], the target named is L1-II peptide (HPV16 L1 residues 493-505) (human papillomavirus type 16). The assay is described as above.

Chain of UniProt P03101 (P03101 whole entry, the tested form may be a part): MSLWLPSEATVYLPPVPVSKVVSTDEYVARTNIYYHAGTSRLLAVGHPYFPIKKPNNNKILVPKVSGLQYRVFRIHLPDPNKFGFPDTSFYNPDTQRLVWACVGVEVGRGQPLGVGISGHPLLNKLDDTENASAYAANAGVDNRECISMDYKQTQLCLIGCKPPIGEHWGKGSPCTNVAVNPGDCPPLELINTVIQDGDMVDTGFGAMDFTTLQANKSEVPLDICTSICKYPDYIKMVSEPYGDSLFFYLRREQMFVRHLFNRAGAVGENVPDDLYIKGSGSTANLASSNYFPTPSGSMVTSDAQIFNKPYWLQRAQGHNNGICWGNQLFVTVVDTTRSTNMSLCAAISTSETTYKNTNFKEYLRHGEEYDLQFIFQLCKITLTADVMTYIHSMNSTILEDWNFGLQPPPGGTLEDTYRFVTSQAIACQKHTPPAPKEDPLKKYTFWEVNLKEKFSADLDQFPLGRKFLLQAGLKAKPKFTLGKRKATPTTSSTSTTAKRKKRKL

Turning to “3-hydroxyphthalic anhydride (3HP)-modified bovine beta-lactoglobulin (from UniProt P02754 17-178)”, the inhibition of HPV16 PsV entry into HeLa cells (luciferase), IC50 in assay [1] is 0.59 µg/mL. In addition, the Ka in assay [2] is 231000 M⁻¹; in assay [3] it was 104000 M⁻¹.

The values are drawn from publication PMC6775479.
